Measurements published in patent publication US12139520B2 (priority 2020, dated 2024).
Bridge positions count the residues as written; N and C are the ends. Square brackets hold non-standard residues; d marks the D form. Ends that are not written are not given here. Hyp = O=C(O)[C@@H]1C[C@@H](O)CN1

T1: hAMY3R (human, UniProt P30988)
T1 sequence 1: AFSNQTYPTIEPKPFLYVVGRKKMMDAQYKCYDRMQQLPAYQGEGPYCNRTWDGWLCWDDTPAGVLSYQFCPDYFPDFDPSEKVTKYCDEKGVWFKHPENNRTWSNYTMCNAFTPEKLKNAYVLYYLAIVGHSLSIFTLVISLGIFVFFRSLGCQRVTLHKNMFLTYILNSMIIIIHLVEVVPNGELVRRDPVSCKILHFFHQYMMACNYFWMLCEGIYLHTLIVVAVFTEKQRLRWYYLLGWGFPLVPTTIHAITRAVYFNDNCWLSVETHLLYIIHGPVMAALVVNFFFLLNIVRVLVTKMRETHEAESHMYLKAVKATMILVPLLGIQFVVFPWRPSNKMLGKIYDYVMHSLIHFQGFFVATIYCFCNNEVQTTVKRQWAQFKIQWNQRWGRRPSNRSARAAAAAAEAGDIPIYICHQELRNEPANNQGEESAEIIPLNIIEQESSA
T1 sequence 2: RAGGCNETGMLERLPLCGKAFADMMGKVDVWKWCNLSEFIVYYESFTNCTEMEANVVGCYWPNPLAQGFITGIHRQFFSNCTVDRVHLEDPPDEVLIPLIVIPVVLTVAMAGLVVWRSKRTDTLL


Each binder was assayed against hAM1R (human, UniProt Q16602) (assay: cell-based or functional assay).
In the case of KCNTATCTVQRLAHQIYFTDKDKDNVAPPTNVGSNG[Hyp]-NH2 (disulfide 2-7 (inferred); ends not checked) [SEQ ID NO: 181], the “hAM1R EC50 (cAMP)” value is reported as > 5000 nM. With GCRTGTCTVQRLAHQIYQFTDKDKDNVAPRSKVGPQG[Hyp]-NH2 (disulfide 2-7 (inferred); ends not checked) [SEQ ID NO: 187] the “hAM1R EC50 (cAMP)” value was 2980 nM. In the case of GCRTGTCTVQRLAHQIHQFTDKFKDNVAPRSKISPQT[Hyp]-NH2 (disulfide 2-7 (inferred); ends not checked) [SEQ ID NO: 193], the “hAM1R EC50 (cAMP)” value is reported as > 5000 nM. GCRTGTCTVQRLAHQIYQFTDKFKDNVAPRSKISPQY[Hyp]-NH2 (disulfide 2-7 (inferred); ends not checked) [SEQ ID NO: 186] was tested, and the “hAM1R EC50 (cAMP)” value was > 5000 nM. GCRFGTCTVQRLAHQIYQFTDKDKDNVAPRSNISPQGY [SEQ ID NO: 182] was tested, and the “hAM1R EC50 (cAMP)” value was 100 nM. GCRTGTCTVQRLAHQIYQFTDKDKDNVAPRTKISPNGY [SEQ ID NO: 190] was tested, and the “hAM1R EC50 (cAMP)” value was 2980 nM. In the case of GCRTGTCTVQRLAHQIYQFTDKDKDNVAPRSNIGPQGY [SEQ ID NO: 191], the “hAM1R EC50 (cAMP)” value is reported as 2980 nM. In the case of GCRTGTCTVQRLAHQIYQFTDKDKDNVAPRSNVSPQGY [SEQ ID NO: 183], the “hAM1R EC50 (cAMP)” value is reported as 2980 nM. In the case of GCRTGTCTVQRLAHQIYQFTDKDKDNVAPRTNISPNGY [SEQ ID NO: 188], the “hAM1R EC50 (cAMP)” value is reported as 47.6 nM. GCRTGTCTVQRLAHQIYQFTDKFKDNVAPRSKISPQW[Hyp]-NH2 (disulfide 2-7 (inferred); ends not checked) [SEQ ID NO: 185] was tested, and the “hAM1R EC50 (cAMP)” value was > 5000 nM. In the case of GCRMGTCTVQRLAHQIYQFTNKDKDNVAPRSKISPQT[Hyp]-NH2 (disulfide 2-7 (inferred); ends not checked) [SEQ ID NO: 192], the “hAM1R EC50 (cAMP)” value is reported as > 5000 nM. In the case of GCRTGTCTVQRLAHQIYQFTDKFKDNVAPRSKISPQTW [SEQ ID NO: 184], the “hAM1R EC50 (cAMP)” value is reported as 4500 nM. KCNTATCATQRLANFLVHSSNNFGAILPSTKIGSNTY [SEQ ID NO: 180] was tested, and the “hAM1R EC50 (cAMP)” value was > 5000 nM. KCNTATCATQRLANFLVHSSNNFGAILPRTKVGSNGY [SEQ ID NO: 19] was tested, and the “hAM1R EC50 (cAMP)” value was > 5000 nM. In the case of GCRTGTCTVQRLAHQIYQFTDKDKDNVAPRTKISPQG[Hyp]-NH2 (disulfide 2-7 (inferred); ends not checked) [SEQ ID NO: 189], the “hAM1R EC50 (cAMP)” value is reported as 2980 nM. GCRTGTCTVQRLAHQIYQFTDKDKDNVAPRSKIGPQG[Hyp]-NH2 (disulfide 2-7 (inferred); ends not checked) [SEQ ID NO: 179] was tested, and the “hAM1R EC50 (cAMP)” value was 2980 nM.

What follows are binders tested against T1, hAMY3R (assay: cell-based or functional assay).
KCNTATCTVQRLAHQIYFTDKDKDNVAPPTNVGSNG[Hyp]-NH2 (disulfide 2-7 (inferred); ends not checked) [SEQ ID NO: 181] was tested, and the “hAMY3R EC50 (cAMP)” value was 0.082 nM. In the case of GCRTGTCTVQRLAHQIYQFTDKDKDNVAPRSKVGPQG[Hyp]-NH2 (disulfide 2-7 (inferred); ends not checked) [SEQ ID NO: 187], the “hAMY3R EC50 (cAMP)” value is reported as 0.093 nM. With GCRTGTCTVQRLAHQIHQFTDKFKDNVAPRSKISPQT[Hyp]-NH2 (disulfide 2-7 (inferred); ends not checked) [SEQ ID NO: 193] the “hAMY3R EC50 (cAMP)” value was 0.099 nM. With GCRTGTCTVQRLAHQIYQFTDKFKDNVAPRSKISPQY[Hyp]-NH2 (disulfide 2-7 (inferred); ends not checked) [SEQ ID NO: 186] the “hAMY3R EC50 (cAMP)” value was 0.091 nM. GCRFGTCTVQRLAHQIYQFTDKDKDNVAPRSNISPQGY [SEQ ID NO: 182] was tested, and the “hAMY3R EC50 (cAMP)” value was 0.085 nM. For GCRTGTCTVQRLAHQIYQFTDKDKDNVAPRTKISPNGY [SEQ ID NO: 190], the “hAMY3R EC50 (cAMP)” value was 0.097 nM. For GCRTGTCTVQRLAHQIYQFTDKDKDNVAPRSNIGPQGY [SEQ ID NO: 191], the “hAMY3R EC50 (cAMP)” value was 0.098 nM. With GCRTGTCTVQRLAHQIYQFTDKDKDNVAPRSNVSPQGY [SEQ ID NO: 183] the “hAMY3R EC50 (cAMP)” value was 0.088 nM. For GCRTGTCTVQRLAHQIYQFTDKDKDNVAPRTNISPNGY [SEQ ID NO: 188], the “hAMY3R EC50 (cAMP)” value was 0.094 nM. For GCRTGTCTVQRLAHQIYQFTDKFKDNVAPRSKISPQW[Hyp]-NH2 (disulfide 2-7 (inferred); ends not checked) [SEQ ID NO: 185], the “hAMY3R EC50 (cAMP)” value was 0.09 nM. With GCRMGTCTVQRLAHQIYQFTNKDKDNVAPRSKISPQT[Hyp]-NH2 (disulfide 2-7 (inferred); ends not checked) [SEQ ID NO: 192] the “hAMY3R EC50 (cAMP)” value was 0.098 nM. In the case of GCRTGTCTVQRLAHQIYQFTDKFKDNVAPRSKISPQTW [SEQ ID NO: 184], the “hAMY3R EC50 (cAMP)” value is reported as 0.09 nM. In the case of KCNTATCATQRLANFLVHSSNNFGAILPSTKIGSNTY [SEQ ID NO: 180], the “hAMY3R EC50 (cAMP)” value is reported as 0.082 nM. For KCNTATCATQRLANFLVHSSNNFGAILPRTKVGSNGY [SEQ ID NO: 19], the “hAMY3R EC50 (cAMP)” value was 0.008 nM. In the case of GCRTGTCTVQRLAHQIYQFTDKDKDNVAPRTKISPQG[Hyp]-NH2 (disulfide 2-7 (inferred); ends not checked) [SEQ ID NO: 189], the “hAMY3R EC50 (cAMP)” value is reported as 0.096 nM. With GCRTGTCTVQRLAHQIYQFTDKDKDNVAPRSKIGPQG[Hyp]-NH2 (disulfide 2-7 (inferred); ends not checked) [SEQ ID NO: 179] the “hAMY3R EC50 (cAMP)” value was 0.082 nM.
